These results are taken from patent publication US20180355035A1 (STCUBE, published 2018).

Usually kon stands for the second-order rate constant of association. What is called Kd is the free concentration of one partner at which half of the binding sites on the other are occupied at equilibrium, for simple one-to-one binding. Lower therefore signals a tighter complex. As a reminder, the koff is the rate constant with which the complex falls apart.

Assay [1] addresses T1, human BTN1A1 extracellular domain tagged with 6xHis (human, UniProt Q13410 27-242, N-glycosylated (removed by PNGase F in the deglycosylated control)).
T1 construct: also called hBTN1A1-His; BTN1A1-His
T1 chain: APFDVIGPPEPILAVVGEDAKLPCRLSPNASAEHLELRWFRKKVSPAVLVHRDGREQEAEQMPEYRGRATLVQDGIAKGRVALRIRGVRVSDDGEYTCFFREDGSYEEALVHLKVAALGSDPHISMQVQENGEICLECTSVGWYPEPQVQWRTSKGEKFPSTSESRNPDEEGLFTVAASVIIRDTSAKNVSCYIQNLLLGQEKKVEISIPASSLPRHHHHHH
Kind of assay: SPR (Biacore), STC810 captured on Protein A chip, BTN1A1-ECD-His injected; column headed 'kd (1/Ms)'. On the procedure:
(§1) FIG. 11—Surface plasmon resonance analysis of BTN1A1-Fc and BTN1A1-His binding to immobilized STC810 MAb. FIG. 11A: Sensorgrams showing real-time binding of soluble BTN1A1-Fc protein (2-64 nM with 2-fold dilution) to STC810 immobilized on a Protein A-CM5 chip. Flow cells without any immobilized protein were used as the controls for non-specific binding and were subtracted from the presented data. FIG. 11B: Sensorgrams showing real-time binding of soluble BTN1A1-His protein (2-64 nM with 4-fold dilution) to STC810 immobilized on a Protein A-CM5 chip.
(§2) In a Biacore assay, the binding affinity between BTN1A1 and monoclonal anti-BTN1A1 antibody STC810 was measured by Surface Plasmon Resonance. Sensorgram and saturation curve of the titration of antibody by BTN1A1-ECD tagged with 6×His or human IgG1 Fc. The protein A chip (BIAcore) was coated with antibody with 600 response units (RU) and the BTN1A1 ECD was injected in the microfluidic channel. The KD values were obtained using the fitting tool of the BIAevaluation software (BIAcore). FIG. 11 provides sensorgrams showing real-time binding of soluble BTN1A1-Fc protein (2-64 nM with 2-fold dilution; FIG. 11A) or soluble BTN1A1-His protein (2-64 nM with 4-fold dilution; FIG. 11B) to STC810 immobilized on a Protein A-CM5 chip. […]
Background: SPR reads the build-up and loss of mass on a sensor chip optically.

Assay [2] concerns the target T1, human BTN1A1 extracellular domain …. As to the kind of experiment: SPR (Biacore), STC810 captured on Protein A chip, BTN1A1-ECD-His injected. Here is the method: as §1, §2
In assay [3] the target is T2, human BTN1A1 extracellular domain tagged with human IgG1 Fc (human, UniProt Q13410 27-242).
T2 construct: also called hBTN1A1-Fc; BTN1A1-Fc; not shown: human IgG1 Fc region
T2 chain: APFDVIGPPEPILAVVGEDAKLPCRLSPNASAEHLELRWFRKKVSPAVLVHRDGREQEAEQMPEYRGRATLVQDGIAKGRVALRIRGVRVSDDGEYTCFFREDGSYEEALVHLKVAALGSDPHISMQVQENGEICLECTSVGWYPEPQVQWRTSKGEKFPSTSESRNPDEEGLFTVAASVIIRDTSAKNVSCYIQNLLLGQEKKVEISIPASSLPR
Kind of assay: BLI (Octet), antibody loaded on sensor, single analyte concentration, 1:1 fit; column headed 'kd (1/Ms)'. On the procedure: (§3) The KD value of STC810 was also determined in an octet assay. […] Baseline was established in PBS containing 1 mg/ml bovine serum albumin (assay buffer), the association step was performed by submerging the sensors in a single concentration of analyte in assay buffer. Dissociation was performed and monitored in fresh assay buffer. All experiments were performed with sensor shaking at 1,000 rpm. ForteBio's data analysis software was used to fit the data to a 1:1 binding model to extract an association rate and dissociation rate. The KD value was calculated using the ratio kd/ka. In a typical epitope binning assay, antigen BTN1A1-Fc (10 nM) was preincubated with the second antibody (10 nM) for 1 h at room temperature. Control antibody (20 nM) was loaded onto AMC sensors (ForteBio) and remaining Fc-binding sites on the sensor were blocked with a whole mouse IgG antibody (Jackson ImmunoResearch). The sensors were exposed to preinculated antigen-second antibody mixture. Raw data was processed using ForteBio's Data Analysis Software 7.0 and the antibody pairs were assessed for competitive binding. Additional binding by the second antibody indicates an unoccupied epitope (non-competitor), while no binding indicates epitope blocking (competitor).
For orientation: BLI is a label-free optical method that tracks binding on a fibre tip over time.

Assay [4] addresses T3, hBTN1A1 overexpressed in PC3 prostate cancer cells (human, UniProt Q13410 27-526).
T3 sequence: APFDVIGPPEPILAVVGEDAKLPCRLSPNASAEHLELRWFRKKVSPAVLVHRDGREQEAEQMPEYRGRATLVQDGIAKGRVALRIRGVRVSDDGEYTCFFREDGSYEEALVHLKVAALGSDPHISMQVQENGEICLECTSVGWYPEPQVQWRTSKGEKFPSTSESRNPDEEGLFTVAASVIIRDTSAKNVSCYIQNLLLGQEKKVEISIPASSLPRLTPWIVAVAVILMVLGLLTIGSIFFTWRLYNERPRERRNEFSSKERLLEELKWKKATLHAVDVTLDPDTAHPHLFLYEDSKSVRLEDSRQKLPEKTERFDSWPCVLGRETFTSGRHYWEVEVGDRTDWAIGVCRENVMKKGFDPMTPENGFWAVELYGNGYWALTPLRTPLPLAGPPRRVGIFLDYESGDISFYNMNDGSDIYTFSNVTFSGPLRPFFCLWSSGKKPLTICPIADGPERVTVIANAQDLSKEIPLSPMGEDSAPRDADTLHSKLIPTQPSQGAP
Kind of assay: cell-based or functional assay.

The target of assay [5] is T2, human BTN1A1 extracellular domain …. Kind of assay: BLI (Octet), antibody loaded on sensor, single analyte concentration, 1:1 fit; column headed 'ka (1/s)'. Here is the method:
as §3

In assay [6] the target is T1, human BTN1A1 extracellular domain …. As to the kind of experiment: SPR (Biacore), STC810 captured on Protein A chip, BTN1A1-ECD-His injected; column headed 'ka (1/s)'. Here is the method:
as §1, §2

Assay [7] has as its target T4, wild-type human BTN1A1 expressed in HEK293T cells (human, UniProt Q13410 27-526, fully glycosylated, as the filing says).
T4 construct: in whole-cell lysates in the Western blot; also called BTN1A1 WT; human BTN1A1 WT; not shown: C-terminal flag tag
T4 sequence: T3 sequence
As to the kind of experiment: FACS on 293T cells overexpressing BTN1A1 WT or 2NQ, FITC secondary antibody. Here is the method:
FIG. 10—FACS analysis of mouse anti-human BTN1A1 monoclonal antibodies. Human BTN1A1-2NQ (i.e. N55Q and N215Q) and human BTN1A1 WT were expressed in HEK293T cells by transient transfection. The surface expression of hBTN1A1 was measured by FACS analysis with anti-BTN1A1 monoclonal antibodies designated as STC702, STC810, STC819, STC820, STC821, STC822, STC838, and STC839. Anti-BTN1A1 polyclonal antibodies were used as a positive control.
The glyco-specificity of monoclonal anti-BTN1A1 antibodies was characterized by dot blot analysis. Each anti-BTN1A1 mAb (0.5 μg/well loaded) was tested for binding to glycosylated BTN1A1 (PNGaseF “−”) or deglycosylated BTN1A1 (PNGaseF “+”). Non-specific antibody controls (“IgG,” 0.25 μg/well loaded) was also included in the assay. As shown in FIGS. 9A-9B, both glycosylated BTN1A1 protein and non-glycosylated BTN1A1 (BTN1A1 protein treated with PNGase F) were coated on the solid phase and tested for mAbs and antigens binding affinity. […] The glyco-specificity of monoclonal anti-BTN1A1 antibodies was also characterized by FACS analysis. […] After washing, fluorescence intensity (MFI) was measured to assess relative binding of antibodies to membrane bound glycosylated or unglycosylated BTN1A1. […]

The target of assay [8] is T2, human BTN1A1 extracellular domain …. As to the kind of experiment: BLI (Octet), antibody loaded on sensor, single analyte concentration, 1:1 fit. On the procedure:
as §3

For assay [9] the target is unchanged. As to the kind of experiment: SPR (Biacore), STC810 captured on Protein A chip, BTN1A1-ECD-Fc injected; column headed 'ka (1/s)'. Here is the method:
as §1, §2

For assay [10] the target is unchanged. Kind of assay: SPR (Biacore), STC810 captured on Protein A chip, BTN1A1-ECD-Fc injected; column headed 'kd (1/Ms)'. Here is the method: as §1, §2
Assay [11] has the same target. Kind of assay: SPR (Biacore), STC810 captured on Protein A chip, BTN1A1-ECD-Fc injected. On the procedure:
as §1, §2

Another assay addresses T5, mBTNA1A-FC (Mus musculus, UniProt Q62556).
T5 construct: antigen of lanes 5-8 of the dot blot, used untreated and PNGase F treated; the sheet prints mBTNA1A-FC; also called mouse BTN1A1-Fc; mouse BTN1A1 tagged with human IgG1 Fc region
T5 sequence (Fc fusion chain, looked up): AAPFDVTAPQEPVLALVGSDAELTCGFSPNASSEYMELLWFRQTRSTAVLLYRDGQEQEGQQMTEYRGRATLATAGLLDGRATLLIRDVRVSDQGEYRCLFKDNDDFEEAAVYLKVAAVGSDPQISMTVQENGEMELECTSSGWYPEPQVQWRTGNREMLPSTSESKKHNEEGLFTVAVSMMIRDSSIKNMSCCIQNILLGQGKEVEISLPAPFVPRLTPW
As to the kind of experiment: dot blot (layout FIG. 9B), lanes 5-8 mBTNA1A-FC = mouse BTN1A1-Fc, untreated and PNGase F treated. On the procedure: FIG. 9—Dot blot analysis of mouse anti-human BTN1A1 antibodies. […] Antigen BTN1A1-ECD tagged with 6×His was treated with PNGase F to remove N-glycosylation. Polyclonal antibodies were used for positive control. To test the species specificity of BTN1A1, human and mouse BTN1A1 tagged with human IgG1 Fc region was used (lane 1-4 with human BTN1A1-Fc and lane 5-8 with mouse BTN1A1-Fc). The term “ECD” stands for extracellular domain.
The glyco-specificity of monoclonal anti-BTN1A1 antibodies was characterized by dot blot analysis. Each anti-BTN1A1 mAb (0.5 μg/well loaded) was tested for binding to glycosylated BTN1A1 (PNGaseF “−”) or deglycosylated BTN1A1 (PNGaseF “+”). Non-specific antibody controls (“IgG,” 0.25 μg/well loaded) was also included in the assay. As shown in FIGS. 9A-9B, both glycosylated BTN1A1 protein and non-glycosylated BTN1A1 (BTN1A1 protein treated with PNGase F) were coated on the solid phase and tested for mAbs and antigens binding affinity. […] The glyco-specificity of monoclonal anti-BTN1A1 antibodies was also characterized by FACS analysis. […] After washing, fluorescence intensity (MFI) was measured to assess relative binding of antibodies to membrane bound glycosylated or unglycosylated BTN1A1.

B1: mouse monoclonal anti-human BTN1A1 antibody STC810 (antibody, V domains shown)
VH: EVQLQQSGPELVKPGASVKISCKASGYTFTHYNMDWVKQSHGKSLEWIGYIYPSNGGTGYNQKFKSRATLTVDKSSSTAYMELHSLTSEDSAVYYCARGAYHYGSSYAYWYFDVWGAGTTVTVSS
VL: DIQMTQTTSSLSASLGDRVTISCSASQDISNYLNWYQQKPDETVKLLISYTSSLHSGVPSRFSGSGSGTDYSLTISNLAPEDIATYYCQQSSKLPFTFGSGTELEIKR
notes: also called STC838; STC810 MAb
With B1, the kon in assay [1] is 269000 M⁻¹ s⁻¹; in [3], 145000 M⁻¹ s⁻¹; in assay [10], 98900 M⁻¹ s⁻¹. The results for the Kd in assay [2], in assay [8] and in assay [11] were 14.9 nM, 2.12 nM and 1.81 nM, respectively. The “relative apoptosis of PC3 cells at 120 h (caspase 3/7), with activated T cells, 50 µg/ml STC810” value in [4] is 2 fold. In addition, the koff in [5] worked out at 0.000309 s⁻¹; in assay [6], 0.00402 s⁻¹; in assay [9] it was 0.00018 s⁻¹. The “fold MFI on glycosylated BTN1A1 (WT) over unglycosylated BTN1A1 (2NQ)” value in [7] is 5 fold. Further, the binding result with mBTNA1A-FC is “no binding (tested: 0.5 µg/well)”.
